Values of other authors in PMC10343017.
pKd: −log10 of the molar value.

Experiments:
CMG2 (Homo sapiens) = CMG2 (Homo sapiens) (UniProt P58335)
TEM8 (Homo sapiens) = TEM8 (Homo sapiens) (UniProt Q9H6X2)

Substance: protective antigen (from UniProt P13423)
- pKd (CMG2 (Homo sapiens)): 9.11
- pKd (TEM8 (Homo sapiens)): 6.89
